Source: article PMC6978714, “Protective Allele for Multiple Sclerosis HLA-DRB1*01:01 Provides Kinetic Discrimination of Myelin and Exogenous Antigenic Peptides” (Frontiers in Immunology, 2020)
No end group written: not given here.

Experiments:
HLA-DRB1*15:01 [1] = molecular target: T1, HLA-DRB1*15:01 (Homo sapiens, UniProt P01903+P01911); assay: Peptide binding ELISA (L243 capture, streptavidin-peroxidase); settings: thioredoxin-fused biotinylated MBP fragments 750 nM, HLA-DR 150 nM, overnight, 37°C
Description: DR/peptide complexes were then captured on the ELISA plate with immobilized L243 mAb (5 μg/ml in PBS) and blocked with 1% milk in PBS. HLA-DR-bound biotinylated peptide was quantitated with streptavidin-peroxidase (50 μl in PBST), using 3,3′,5,5′-tetramethylbenzidine (50 μl) as a substrate and stopping with 10% phosphoric acid (50 μl). ELISA was performed using standard protocol (https://www.abcam.com/protocols/sandwich-elisa-protocol).

HLA-DRB1*01:01 [2] = molecular target: T2, HLA-DRB1*01:01 (Homo sapiens, UniProt P01903+P01911, A100R/D57E/F55L/F60I/F76Y/I96L/L162R/M171V/P40L/Q125E/R42F/V115G/Y59C); assay: as above; settings: thioredoxin-fused biotinylated MBP fragments 750 nM, HLA-DR 150 nM, overnight, 37°C
HLA-DRB1*15:01 [3] = molecular target: T1, HLA-DRB1*15:01; assay: Real-time ELISA kinetics of peptide loading (CLIP exchange) with or without HLA-DM; format: binding; settings: thioredoxin-fused peptides 150 nM, HLA-DR 150 nM, HLA-DM 150 nM
Description: A real-time ELISA assay was used to assess kinetics of peptide exchange on HLA-DR, catalyzed by HLA-DM. The linker connecting the CLIP peptide to the N-terminus of the HLA-DR β chain was cut with thrombin (1 h, 20 U/mg, at room temperature). DR-CLIP complexes (150 nM) were incubated with or without HLA-DM (150 nM, which was estimated as minimal concentration for maximal rate, see Figure S1) in the presence of biotinylated either synthetic or thioredoxin-fused HA, pp65, MBP, and chimeric peptides (150 nM, which was experimentally estimated as minimal concentration required for reliable detection), for 7, 5, 3, 1, and 0 h. Each time point was mixed separately starting from the end of incubation time (7 h) every 2 h, afterwards all time points were loaded into the plate.

HLA-DRB1*15:01 [4] = molecular target: T1, HLA-DRB1*15:01; assay: Kinetic competition assay with Trx-[pp65]bio in presence of HLA-DM; format: binding; settings: HLA-DRB1*15:01 150 nM, HLA-DM 150 nM, Trx-[pp65]bio 150 nM, competitor 0-1 μM
Description: (§1) In a competition assay, kinetic experiments were carried out as described above. Kinetics were measured in the presence of increasing concentrations (0, 30, 100, 300, and 1,000 nM) of thioredoxin-fused HA, pp65, MBP, or chimeric peptides at timepoints 8, 6, 4, 2, and 0 h. Thioredoxin without any peptide was used as a control. ELISA was performed as done previously. All experiments were carried out in triplicates.

HLA-DRB1*15:01 [5] = molecular target: T1, HLA-DRB1*15:01; assay: 18 h competition assay with Trx-[pp65]bio; format: binding; settings: HLA-DRB1*15:01 150 nM, Trx-[pp65]bio 150 nM, competitor 7.8 nM-1 μM
Description: In a competition assay, biotinylated thioredoxin-fused HA and pp65 peptides (150 nM) were incubated with HLA-DR in the presence of HA, pp65, MBP or chimeric peptides (1,000, 500, 250, 125, 62.5, 31.2, 15.6, and 7.8 nM) for 18 h. Whole procedure was the same as described above.

HLA-DRB1*01:01 [6] = molecular target: T2, HLA-DRB1*01:01; assay: Real-time ELISA kinetics of peptide loading (CLIP exchange) with or without HLA-DM; format: binding; settings: thioredoxin-fused chimeric peptides with C-terminal part of MBP151-164 or MBP88-100, 150 nM, HLA-DR 150 nM, with or without HLA-DM 150 nM
HLA-DRB1*01:01 [7] = molecular target: T2, HLA-DRB1*01:01; assay: Kinetic competition assay with Trx-[HA]bio in presence of HLA-DM; format: binding; settings: HLA-DRB1*01:01 150 nM, HLA-DM 150 nM, Trx-[HA]bio 150 nM, competitor 0-1 μM, 0-8 h
Description: as §1

HLA-DR1 = settings: direct binding to purified molecules; cited from earlier work
Source text: (§2) MS therapeutic glatiramer acetate (GA) or Copaxone is a 40–100 amino acids polypeptide of a random sequence composed from alanine, lysine, glutamate, and tyrosine at a molar ratio of 4.5:3.6:1.5:1, respectively, that with high affinity binds directly to the purified HLA-DR1, -DR2, and -DR4 molecules ([45]). Combinatorial chemistry, which lays in the basis of GA, may result in assembling of multiple HLA class II epitopes, that at least in part may be not simply thermodynamically but rather kinetically preferable. Concluding our data provide novel vector of optimization of altered peptide ligand ...

HLA-DR2 = settings: direct binding to purified molecules; cited from earlier work
Source text: as §2

HLA-DR4 = settings: direct binding to purified molecules; cited from earlier work
Source text: as §2

MBP25−54: thioredoxin-fused MBP fragment of the MBP epitope library (ARHGFLPRHRDTGILDSIGRFFGGDRGAPK; not fully specified (N-terminus); also: fused to thioredoxin via (SGGGG)3S linker at N-terminus, His-tag, position not given here, biotinylated with Sulfo-NHS-LC-biotin, site not given here)
Binding of MBP epitope library to HLA-DRB1*15:01 (HLA-DRB1*15:01 [1]): significantly diminished efficiency

MBP65−92: thioredoxin-fused MBP fragment of the MBP epitope library ({thioredoxin-(SGGGG)3S}-ARTAHYGSLPQKSHGRTQDENPVVHFFK; also: biotin (EZ-Link Sulfo-NHS-LC-biotin), places not given here, His-tag, end not given here)
Binding of MBP epitope library to HLA-DRB1*01:01 (HLA-DRB1*01:01 [2]): less efficiently bound

MBP130−156: thioredoxin-fused MBP fragment of the MBP epitope library (GRASDYKSAHKGFKGVDAQGTLSKIFK; not fully specified (N-terminus); also: fused to thioredoxin via (SGGGG)3S linker at N-terminus, His-tag, position not given here, biotinylated with Sulfo-NHS-LC-biotin, site not given here)
Binding of MBP epitope library to HLA-DRB1*01:01 (HLA-DRB1*01:01 [2]): less efficiently bound
Binding of MBP epitope library to HLA-DRB1*15:01 (HLA-DRB1*15:01 [1]): significantly diminished efficiency

Trx-[MBP85−97]: thioredoxin-fused MBP85−97 (NPVVHFFKNIVTP; not fully specified (N-terminus); also: fused to thioredoxin via (SGGGG)3S linker at N-terminus, His-tag, position not given here, biotinylated with Sulfo-NHS-LC-biotin, site not given here)
Rate of loading on HLA-DRB1*15:01 with or without HLA-DM (HLA-DRB1*15:01 [3]): similarly high rate
Concentration from which binding of Trx-[pp65]bio was decreased (HLA-DRB1*15:01 [4]): 100 nM
Thermodynamic inhibition capacity in comparison with Trx-[pp65] and Trx-[pp65-MBP91-97] (HLA-DRB1*15:01 [5]): up to half of order of magnitude greater

Trx-[MBP88−100]: thioredoxin-fused MBP88−100 ({thioredoxin-(SGGGG)3S}-VHFFKNIVTPRTP; also: biotin (EZ-Link Sulfo-NHS-LC-biotin), places not given here, His-tag, end not given here)
Capable of efficiently binding HLA-DRB1*01:01 (kinetic assay) (HLA-DRB1*01:01 [6]): none

Trx-[MBP151−164]: thioredoxin-fused MBP151−164 ({thioredoxin-(SGGGG)3S}-LSKIFKLGGRDSRS; also: biotin (EZ-Link Sulfo-NHS-LC-biotin), places not given here, His-tag, end not given here)
Capable of efficiently binding HLA-DRB1*01:01 (kinetic assay) (HLA-DRB1*01:01 [6]): none
Concentration up to which the peptide failed to compete with Trx-[HA]bio (HLA-DRB1*01:01 [7]): > 1 µM

glatiramer acetate
Binding to purified HLA-DR1 (HLA-DR1): high affinity
Binding to purified HLA-DR2 (HLA-DR2): high affinity
Binding to purified HLA-DR4 (HLA-DR4): high affinity
